Data published in patent US20210340273A1 (INHLBRX, published 2021).

T1: human 5T4 (trophoblast glycoprotein), endogenous on the cell surface (human, UniProt Q13641 32-420)
T1 construct: also called TPBG; 5T4 oncofetal antigen
T1 sequence: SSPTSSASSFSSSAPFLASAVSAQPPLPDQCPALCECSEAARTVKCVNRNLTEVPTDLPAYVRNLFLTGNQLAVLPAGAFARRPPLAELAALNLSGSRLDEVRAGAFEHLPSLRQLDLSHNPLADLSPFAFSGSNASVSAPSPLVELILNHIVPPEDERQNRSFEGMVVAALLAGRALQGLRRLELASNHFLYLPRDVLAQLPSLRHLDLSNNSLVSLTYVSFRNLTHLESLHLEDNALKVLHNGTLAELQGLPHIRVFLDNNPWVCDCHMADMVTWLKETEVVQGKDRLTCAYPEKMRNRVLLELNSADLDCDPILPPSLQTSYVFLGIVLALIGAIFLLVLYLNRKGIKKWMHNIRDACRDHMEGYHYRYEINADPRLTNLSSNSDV


Each binder was assayed against T1, human 5T4 (trophoblast glycoprotein), … (assay: flow cytometry (FL4H median), sdAb-Fc titrated on 5T4-positive T47D cells).
Method: (§1) Specificity and relative affinity were assessed for purified sdAb-Fcs on 5T4-expressing cells. Binding of 5T4-sdAb-Fc fusion proteins was assessed by flow cytometry using 5T4-expressing cells. A titration series of the fusion protein was incubated with the 5T4-expressing cell lines (approximately 2.5×10⁴ to 5×10⁴ cells/well) for 30 minutes at 4 degrees Celsius in FACS Buffer (PBS 1% BSA, 0.1% NaN₃ pH 7.4) in 96 well plates. Following three wash steps in FACS buffer, an APC-conjugated anti-human Fcγ specific secondary antibody (Jackson ImmunoResearch) was added and incubated for 30 minutes at 4 degrees Celsius. Following three additional wash steps in FACS buffer bound antibody was detected via flow cytometry (IQue Intellicyte).
(§2) Humanized variant of the 5T4 sdAbs were tested for their ability to bind 5T4 expressing cells substantially as described in Example 2, and binding was compared to the parental sdAb. 5T4 expressing T47D cells were used in these studies. Results are shown in FIGS. 2A-2F, which confirm binding of the humanized variants. In some cases, binding was increased compared to the parental sdAb.

| Binder | EC50 (read off the curve) [nM] |
| --- | --- |
| hz14B5v11 sdAb-Fc (Fc fusion, Humanized variant of 14B5, linked to a human Fc; also called hz14B511; not shown: human Fc) EVQLVESGGGEVQAGDSLTLSCAVSERPFGTYAMGWFRQAPGRERDLVAAVSRNAGASQYAESVKGRFTISRDNAKNTMYLQMSSLRAEDTAVYYCAARSAAYSRSSEVYTGKDEYYYWGQGTLVTVKP | ~2 |
| hz14B5v12 sdAb-Fc (Fc fusion, Humanized variant of 14B5, linked to a human Fc; not shown: human Fc) EVQLVESGGGEVQPGGSLRLSCAASERPFGTYAMGWFRQAPGKERDLVAAVSRNAGASQYGESVKGRFSISRDNIKNTMYLQMSSLKPEDTAVYYCAARSAAYSRSSEVYTGKDEYYYWGQGTLVTVKP | ~2 |
| hz14B5v13 sdAb-Fc (Fc fusion, Humanized variant of 14B5, linked to a human Fc; not shown: human Fc) EVQLVESGGGEVQPGGSLRLSCAASERPFGTYAMGWFRQAPGKERETVAAVSRNAGASQYAESVKGRFTISRDNAKNTMYLQMSSLRAEDTAVYYCAARSAAYSRSSEVYTGKDEYYYWGQGTLVTVKP | ~2 |
| hz14B5v14 sdAb-Fc (Fc fusion, Humanized variant of 14B5, linked to a human Fc; not shown: human Fc) EVQLVESGGGEVQPGGSLRLSCAASERPFGTYAMGWFRQAPGKEREFVAAVSRNAGASQYAESVKGRFTISRDNAKNTMYLQMSSLRAEDTAVYYCAARSAAYSRSSEVYTGKDEYYYWGQGTLVTVKP | ~2 |
| hz14B5v15 sdAb-Fc (Fc fusion, Humanized variant of 14B5, linked to a human Fc; not shown: human Fc) EVQLVESGGGEVQPGGSLRLSCAASERPFGTYAMGWFRQAPGKERDLVAAVSRNAGASYYAESVKGRFTISRDNAKNTMYLQMSSLRAEDTAVYYCAARSAAYSRSSEVYTGKDEYYYWGQGTLVTVKP | ~2 |

Target: T1, human 5T4 (trophoblast glycoprotein), …
Assay: as above
Remark: another data set of the same source
Method: as §1, §2

| EC50 (read off the curve) [nM] | binding result | Binder |
| --- | --- | --- |
| ~2 | – | hz14B5v8 sdAb-Fc (Fc fusion, Humanized variant of 14B5, linked to a human Fc; not shown: human Fc) EVQLVESGGGEVQPGGSLRLSCAASERPFGTYAMGWFRQAPGKERDLVAAVSRGGGASQYAESVKGRFTISRDNAKNTMYLQMSSLRAEDTAVYYCAARSAAYSRSSEVYTGKDEYYYWGQGTLVTVKP |
| ~2 | – | hz16G10v1 sdAb-Fc (Fc fusion, Humanized variant of 16G10, linked to a human Fc; not shown: human Fc) EVQLVESGGGEVQPGGSLRLSCAASGRPFSSSAMGWFRQAPGKGRETVSAVSRNGGSSYYAESVKGRFTISRDNAKNTLYLQMSSLRAEDTAVYYCAARSAAYSRSSETYTEKHDYTYWGQGTLVTVKP |
| ~2 | – | hz16G10v2 sdAb-Fc (Fc fusion, Humanized variant of 16G10, linked to a human Fc; not shown: human Fc) EVQLVESGGGEVQPGGSLRLSCAASGRPFSSSAMGWFRQAPGKERETVAAVSRNGGSSYYAESVKGRFTISRDNAKNTLYLQMSSLRAEDTAVYYCAARSAAYSRSSETYTEKHDYTYWGQGTLVTVKP |
| ~2 | – | hz16G10v3 sdAb-Fc (Fc fusion, Humanized variant of 16G10, linked to a human Fc; not shown: human Fc) EVQLVESGGGEVQPGGSLRLSCAASGRPFSSSAMGWFRQAPGKERETVAAVSRNGGSSYYAESVKGRFTISRDNAKNTVYLQMSSLRAEDTAVYYCAARSAAYSRSSETYTEKHDYTYWGQGTLVTVKP |
| ~9 | – | hz16G10v4 sdAb-Fc (Fc fusion, Humanized variant of 16G10, linked to a human Fc; not shown: human Fc) EVQLVESGGGEVQPGGSLRLSCAASGRPFSSSAMGWFRQAPGKERETVAAVSRQGGSSYYAESVKGRFTISRDNAKNTVYLQMSSLRAEDTAVYYCAARSAAYSRSSETYTEKHDYTYWGQGTLVTVKP |
| ~5 | – | hz16G10v5 sdAb-Fc (Fc fusion, Humanized variant of 16G10, linked to a human Fc; not shown: human Fc) EVQLVESGGGEVQPGGSLRLSCAASGRPFSSSAMGWFRQAPGKERETVAAVSRGGGSSYYAESVKGRFTISRDNAKNTVYLQMSSLRAEDTAVYYCAARSAAYSRSSETYTEKHDYTYWGQGTLVTVKP |

Continued, binder first:

| Binder | EC50 (read off the curve) [nM] | binding result |
| --- | --- | --- |
| hz12E9v4 sdAb-Fc (Fc fusion, Humanized variant of 12E9, linked to a human Fc; not shown: human Fc) EVQLVESGGGEVQPGGSLRLSCAASRRPFSSKTMAWFRQAPGKEREFVAAVRWIGGATRYTESVKGRFTISRDNAKNTVYLQMSSLRAEDTAVYYCAAGQAWGTKFTDYSDWGQGTLVTVKP | ~0.2 | – |
| hz12E9v1 sdAb-Fc (Fc fusion, Humanized variant of 12E9, linked to a human Fc; not shown: human Fc) EVQLVESGGGEVQPGGSLRLSCAASRRPFSSKTMAWFRQAPGKGREFVAAVRWIGGATRYAESVKGRFTISRDNAKNTLYLQMSSLRAEDTAVYYCAAGQAWGTKFTDYSDWGQGTLVTVKP | – | binds |
| hz12E9v2 sdAb-Fc (Fc fusion, Humanized variant of 12E9, linked to a human Fc; not shown: human Fc) EVQLVESGGGEVQPGGSLRLSCAASRRPFSSKTMAWFRQAPGKEREFVAAVRWIGGATRYAESVKGRFTISRDNAKNTLYLQMSSLRAEDTAVYYCAAGQAWGTKFTDYSDWGQGTLVTVKP | ~0.2 | – |
| hz12E9v3 sdAb-Fc (Fc fusion, Humanized variant of 12E9, linked to a human Fc; not shown: human Fc) EVQLVESGGGEVQPGGSLRLSCAASRRPFSSKTMAWFRQAPGKEREFVAAVRWIGGATRYAESVKGRFTISRDNAKNTVYLQMSSLRAEDTAVYYCAAGQAWGTKFTDYSDWGQGTLVTVKP | ~0.2 | – |
| hz12E9v6 sdAb-Fc (Fc fusion, Humanized variant of 12E9, linked to a human Fc; not shown: human Fc) EVQLVESGGGEVQAGGSLRLSCAASRRPFSSKTMAWFRQTPGKEREFVAAVRWIGGATRYAESVKGRFTISRDNAKNTVYLQMSSLRAEDTAVYYCAAGQAWGTKFTDYSDWGQGTLVTVKP | – | binds |
| hz14B5v4 sdAb-Fc (Fc fusion, Humanized variant of 14B5, linked to a human Fc; not shown: human Fc) EVQLVESGGGEVQPGGSLRLSCAASERPFGTYAMGWFRQAPGKERDLVAAVSRNGGASQYAESVKGRFTISRDNAKNTVYLQMSSLRAEDTAVYYCAARSAAYSRSSEVYTGKDEYYYWGQGTLVTVKP | – | binds |
| hz14B5v1 sdAb-Fc (Fc fusion, Humanized variant of 14B5, linked to a human Fc; not shown: human Fc) EVQLVESGGGEVQPGGSLRLSCAASERPFGTYAMGWFRQAPGKGRDLVSAVSRNGGASQYAESVKGRFTISRDNAKNTLYLQMSSLRAEDTAVYYCAARSAAYSRSSEVYTGKDEYYYWGQGTLVTVKP | – | binds |
| hz14B5v3 sdAb-Fc (Fc fusion, Humanized variant of 14B5, linked to a human Fc; not shown: human Fc) EVQLVESGGGEVQPGGSLRLSCAASERPFGTYAMGWFRQAPGKERDLVAAVSRNGGASQYAESVKGRFTISRDNAKNTMYLQMSSLRAEDTAVYYCAARSAAYSRSSEVYTGKDEYYYWGQGTLVTVKP | – | binds |
| hz14B5v5 sdAb-Fc (Fc fusion, Humanized variant of 14B5, linked to a human Fc; not shown: human Fc) EVQLVESGGGEVQPGGSLRLSCAASERPFGTYAMGWFRQAPGKERDLVAAVSRNAGASQYAESVKGRFTISRDNAKNTMYLQMSSLRAEDTAVYYCAARSAAYSRSSEVYTGKDEYYYWGQGTLVTVKP | – | binds |
| hz14B5v6 sdAb-Fc (Fc fusion, Humanized variant of 14B5, linked to a human Fc; not shown: human Fc) EVQLVESGGGEVQPGGSLRLSCAASERPFGTYAMGWFRQAPGKERDLVAAVSRNTGASQYAESVKGRFTISRDNAKNTMYLQMSSLRAEDTAVYYCAARSAAYSRSSEVYTGKDEYYYWGQGTLVTVKP | – | binds |
| hz14B5v7 sdAb-Fc (Fc fusion, Humanized variant of 14B5, linked to a human Fc; not shown: human Fc) EVQLVESGGGEVQPGGSLRLSCAASERPFGTYAMGWFRQAPGKERDLVAAVSRQGGASQYAESVKGRFTISRDNAKNTMYLQMSSLRAEDTAVYYCAARSAAYSRSSEVYTGKDEYYYWGQGTLVTVKP | ~2 | – |
| hz14B5v9 sdAb-Fc (Fc fusion, Humanized variant of 14B5, linked to a human Fc; not shown: human Fc) EVQLVESGGGEVQPGGSLRLSCAASERPFGTYAMGWFRQAPGKERDLVAAVSRNGGASQYGDSVKGRFTISRDNAKNTMYLQMSSLRAEDTAVYYCAARSAAYSRSSEVYTGKDEYYYWGQGTLVTVKP | – | binds |
| hz14B5v10 sdAb-Fc (Fc fusion, Humanized variant of 14B5, linked to a human Fc; also called hz14B510; not shown: human Fc) EVQLVESGGGEVQPGGSLRLSCAASERPFGTYAMGWFRQAPGKERDLVAAVSRNGGASQYGESVKGRFTISRDNAKNTMYLQMSSLRAEDTAVYYCAARSAAYSRSSEVYTGKDEYYYWGQGTLVTVKP | – | binds |
| hz16G10v6 sdAb-Fc (Fc fusion, Humanized variant of 16G10, linked to a human Fc; not shown: human Fc) EVQLVESGGGEVQPGGSLRLSCAASGRPFSSSAMGWFRQAPGKERETVAAVSRNAGSSYYAESVKGRFTISRDNAKNTVYLQMSSLRAEDTAVYYCAARSAAYSRSSETYTEKHDYTYWGQGTLVTVKP | – | binds |
| hz16G10v8 sdAb-Fc (Fc fusion, Humanized variant of 16G10, linked to a human Fc; not shown: human Fc) EVQLVESGGGEVQPGGSLRLSCAASGRPFSSSAMGWFRQAPGKERETVAAVSRNGGSSYYADFVKGRFTISRDNAKNTVYLQMSSLRAEDTAVYYCAARSAAYSRSSETYTEKHDYTYWGQGTLVTVKP | – | binds |
| hz16G10v9 sdAb-Fc (Fc fusion, Humanized variant of 16G10, linked to a human Fc; not shown: human Fc) EVQLVESGGGEVQPGGSLRLSCAASGRPFSSSAMGWFRQAPGKERETVAAVSRNGGSSYYAESVKGRFTISRDNDKNTVYLQMSSLRAEDTAVYYCAARSAAYSRSSETYTEKHDYTYWGQGTLVTVKP | – | binds |
